{"source": "paper PMC8155123", "about": "“A novel fungal metal-dependent α-L-arabinofuranosidase of family 54 glycoside hydrolase shows expanded substrate specificity” (Scientific Reports, 2021)", "assay_in_all_cases": "purified protein", "settings_in_all_cases": "pH 6.5, 55 °C, 10 min, sodium phosphate, metal-dependent enzyme", "key": {"[1]": {"substrate": "O=[N+]([O-])c1ccc(O[C@H]2O[C@H](CO)[C@@H](O)[C@@H]2O)cc1"}, "[2]": {"substrate": "O=[N+]([O-])c1ccc(O[C@@H]2O[C@H](CO)[C@H](O)[C@H](O)[C@H]2O)cc1"}, "[3]": {"substrate": "C[C@H]1O[C@@H](Oc2ccc([N+](=O)[O-])cc2)[C@H](O)[C@@H](O)[C@H]1O"}, "[4]": {"substrate": "O=[N+]([O-])c1ccc(O[C@H]2OC[C@@H](O)[C@@H](O)[C@@H]2O)cc1"}}, "data": [{"protein": "ThABF (Trichoderma harzianum) (protein) GPCDIYSSGGTPCVAAHSTTRALYSAYTGPLYQVKRGSDGATTTISPLSSGVANAAAQDSFCAGTTCLITIIYDQSGRGNHLTQAPPGGFNGPESNGYDNLASAIGAPVTLNGQKAYGVFISPGTGYRNNAASGTAKGDAAEGMYAVLDGTHYNGACCFDYGNAETSSRDTGNGHMEAIYYGDSTVWGTGSGNGPWIMADLENGLFSGSAVHNNAGDPSISYRFVTAAVKGQPNQWAIRGGNSASGSLSTFYNGARPSASGYNPMSKEGAIILGIGGDNSNGAQGTFYEGVMTSGYPSDATENSVQANIVAAKYAVTSLTSGPALTTGSSVSLRATTACCTTRYITHSGSTVNTQVVSSSSATAPKQQASWTVRAGLGNSGCFSFESKDTPGSYIRHNNFVLLLNANDGSKQFAEDATFCPQAGLNGQGSSLRAWGYPTRYFRHYDNVLYVASNGGVHTFDATGSFNDDVSFVISASFA", "values": [{"measurement": "Km", "setting": "[1]", "value": "6.75 ± 3.24", "unit": "mM"}, {"measurement": "kcat", "setting": "[1]", "value": 1.61, "unit": "s⁻¹"}, {"measurement": "kcat/Km", "setting": "[1]", "value": 238, "unit": "M⁻¹ s⁻¹"}, {"measurement": "Km", "setting": "[2]", "value": "1.68 ± 0.12", "unit": "mM"}, {"measurement": "kcat", "setting": "[2]", "value": 35.5, "unit": "s⁻¹"}, {"measurement": "kcat/Km", "setting": "[2]", "value": 21100, "unit": "M⁻¹ s⁻¹"}, {"measurement": "Km", "setting": "[3]", "value": "6.51 ± 1.00", "unit": "mM"}, {"measurement": "kcat", "setting": "[3]", "value": 35.7, "unit": "s⁻¹"}, {"measurement": "kcat/Km", "setting": "[3]", "value": 5480, "unit": "M⁻¹ s⁻¹"}, {"measurement": "Km", "setting": "[4]", "value": "3.30 ± 0.16", "unit": "mM"}, {"measurement": "kcat", "setting": "[4]", "value": 13.4, "unit": "s⁻¹"}, {"measurement": "kcat/Km", "setting": "[4]", "value": 4070, "unit": "M⁻¹ s⁻¹"}]}]}
